Results on one substance are retold here after patent US6528295.

The experiment has as its target Protein Phosphatase Methylesterase-1 (PME-1), endogenous protein of NIH3T3 cells (mouse) (UniProt Q8BVQ5). The experiment is described as follows: anti-HA co-immunoprecipitation, silver-stained 2D gel.

Sequence of Protein Phosphatase Methylesterase-1 (PME-1), endogenous protein of NIH3T3 cells (mouse) (Q8BVQ5 whole entry): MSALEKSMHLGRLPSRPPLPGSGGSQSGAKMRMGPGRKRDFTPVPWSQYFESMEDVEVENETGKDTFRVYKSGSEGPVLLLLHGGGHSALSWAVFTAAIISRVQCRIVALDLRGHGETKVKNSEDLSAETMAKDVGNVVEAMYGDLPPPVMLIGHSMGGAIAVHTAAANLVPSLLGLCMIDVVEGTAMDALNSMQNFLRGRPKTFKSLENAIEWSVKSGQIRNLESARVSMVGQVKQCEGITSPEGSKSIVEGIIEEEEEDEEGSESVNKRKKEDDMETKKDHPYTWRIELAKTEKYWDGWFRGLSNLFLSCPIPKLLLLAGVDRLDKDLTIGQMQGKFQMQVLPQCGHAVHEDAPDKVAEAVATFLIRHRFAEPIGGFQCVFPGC

Regarding “HA-tagged PP2A C subunit mutant H118Q (from UniProt P67775 1-309) (enzyme)”, the stoichiometry of PME-1 to the A and C subunits in the immunoprecipitate amounted to 1.
